Measurements reported in PMC4354037.

Target: T1, BSU Pol I (BSU polymerase) (Bacillus subtilis) (UniProt O34996)
T1 sequence: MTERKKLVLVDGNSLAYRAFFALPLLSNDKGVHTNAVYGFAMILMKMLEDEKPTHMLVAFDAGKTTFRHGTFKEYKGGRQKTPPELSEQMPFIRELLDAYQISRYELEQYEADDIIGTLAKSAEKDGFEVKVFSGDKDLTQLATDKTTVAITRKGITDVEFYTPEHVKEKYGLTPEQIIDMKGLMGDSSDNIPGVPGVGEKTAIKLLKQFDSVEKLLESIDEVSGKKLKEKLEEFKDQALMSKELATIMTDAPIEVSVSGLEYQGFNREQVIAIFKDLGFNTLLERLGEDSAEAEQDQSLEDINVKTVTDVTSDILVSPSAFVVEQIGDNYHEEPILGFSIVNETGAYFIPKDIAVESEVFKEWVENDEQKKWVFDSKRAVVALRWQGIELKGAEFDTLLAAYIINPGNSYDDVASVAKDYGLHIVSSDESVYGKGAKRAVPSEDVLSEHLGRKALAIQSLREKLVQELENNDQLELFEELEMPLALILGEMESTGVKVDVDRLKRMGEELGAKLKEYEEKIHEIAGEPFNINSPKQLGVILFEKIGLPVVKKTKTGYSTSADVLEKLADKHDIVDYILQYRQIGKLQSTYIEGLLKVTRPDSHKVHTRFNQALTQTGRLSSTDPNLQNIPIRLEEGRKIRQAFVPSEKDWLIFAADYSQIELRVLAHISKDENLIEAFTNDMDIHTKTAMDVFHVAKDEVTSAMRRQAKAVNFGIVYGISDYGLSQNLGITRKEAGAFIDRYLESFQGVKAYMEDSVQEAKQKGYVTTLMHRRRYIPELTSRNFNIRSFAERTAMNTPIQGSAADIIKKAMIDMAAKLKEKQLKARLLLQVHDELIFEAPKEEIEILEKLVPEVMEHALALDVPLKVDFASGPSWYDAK
Assay: stopped-flow fluorescence quenching
Conditions: 375 mM NaCl, 10 mM MgSO4, fluorescein-modified thymidine in primer, five bases from the incorporation site, Stopped flow: 20 mM ACES pH 7.4, 62.5-325 mM NaCl (Methods; 375 mM in Results), 10 mM MgSO4, 1 uM acetylated BSA, 0.02% Tween-20, 1 mM TCEP, 600 nM enzyme …

GCTTGCACAGGGCCTCGAC / CGTTAGTAAGGTCGAGGCCCTGTGCAAGC [stopped-flow primer/template duplex]
binding signal (fold signal over mismatch) (correct nucleotide dCTP 100 uM): 3.5 | binding signal (reference signal (correct is 3.5-fold)) (mismatch nucleotide dATP): 1
